Here are results for 50 sequences from the domain aggregation screens of Martell et al. (2025).

The data set in a line: soluble fraction after stress (log2 fold change); higher = more stays soluble; pooled small domains, quantitative proteomics. As to conditions: stress: 50 degC. The method, boiled down:
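After stress at 50°C, the amount of each protein still soluble was measured. This was done on pooled custom libraries of small protein domains, using high-throughput quantitative proteomics. The figure given is a base-two log fold change and stands for aggregation propensity, with higher values meaning more protein stays in solution.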
In the case of “HMLNSLDATQRLKLNKDGVVVFNFGKYVDQSVIDIFKKEKGYYNWMMSKDFSQQVKNIITKIYQEEIIG”, the “soluble fraction (log2)” value was -0.982. For “HMGVDMAPESIVGKKGVAATELRPAGKVEIHGQVYDAVSVGMFIKRGTGVKVVRYEAAQIYVEPE” the value was 0.146; for “HMETYNLDVGDSAVLQYQNVSRISVGNPDVLDAIPLDKSQILLTGKATGGAALIVWDSKGMHMEKVMVHPA”, -0.156; for “HMHQIFAETVFEDIAFGPRNKGFNEEEVAKQVREAMAFVGLDYDTYAQRSPFQLSGGQMRRVAIAGVVA”, -0.0418. In the case of “HMEYSAAYDRELESIFNLTERGKWEEAEAEVGLLLQQYPEDKTLLRISEWVATQKTILREQAIEDRIRS”, the “soluble fraction (log2)” value turned out to be 0.186.

For “HMEAADAGTLAQRAAQYFNEKNYAAALDALERRAAMAPETTELRMMRGWSLLHLNRKDEARNAFATLG”, the “soluble fraction (log2)” value was -0.0562. As to “HMTMSFSELLRGLRKSRGMSQAELATAVGLSQAQVSQIETGKLLPSPELIEKLAALYGIALGSA”, the “soluble fraction (log2)” value is -0.139. For “HMHMNFGEILQTKRKEKGFTQEELAHQLLVSSKTISNWETNKTTPDIDNVIRISQLFDISLNQLLLE”, the “soluble fraction (log2)” value was -0.379. With “HMAYWVVKNNQVSLQINRSNYQITSTARALSNGNLGDEIDVKVLQSGVIKKAVVIGKGQVELLR”, the “soluble fraction (log2)” value is -1.89. Consider “HMEDPFATLGVHREASLDEIKRAYRRLAMFWHPDRNPEAVAGTEFKRVHAAYELLLDPQRLAEWQQAQAT”, for which the “soluble fraction (log2)” value worked out at 0.04. Consider “HMRIQLNFSDQLLDDVMSEALKHIDRKSQEHHIEKQMDDEFMLVYIDARLIIQVIVNIINNAIKY”, for which the “soluble fraction (log2)” value was -0.00268. For “HMKINYNEFLRRFLGEKEGDIIEMETGKRIGTHKGYWFHTIGQRKGLGLGGGPWFVIRKDIDENIIYVSHG” the value was -1.06; for “HMSGAERAAALLVALGPEVASEIMKFLDDESIQKLASEIAKIEVLSPQEKEDLIGQFLLELKKT”, -0.214. In the case of “HMYTVQPHESLWSIAASQLGDGHRFTEIVDLNQELLGGKANFIKPGWVLQIP” it was -0.299; in that of “HMERQILFTKEDLIEFGLSGGTDSRKRRDVLGHILGIGYSNSKQFLNRLNNFGVTREEFLSAIERIG”, -0.778; in that of “HMALPHEIKQKWLEEIMTMLRSSDSVTINKVYLHFPENKSHWVDEILTDLSNTHMITRQHDFIRLKN”, -0.282.

In the case of “HMSPEWTPAEQDAIDKASEGEYGEALQRVLSGDYEPMDIPDALWGVQQVADKDTYSSIQKKIADIGN”, the “soluble fraction (log2)” value is 0.42. Take “HMPAYYQKEAVLDGRASVFAYERDPSSWYFKQLIPGTKKYRTKKIQGATTLEQAKSQALDIALGLRDEP”: the “soluble fraction (log2)” value is 0.0201. For the sequence “HMVVYQRVHDEILQALKDNVYPVGTLLPPEPELERIYSVSRTTVRRAIAKLSEEGYVQVRQGYGTMVLKN”, the “soluble fraction (log2)” value is -0.576. Regarding “HMLTEKEEEVMQILWDNGPLFVREILEFYPDPKPHYNTVSTVIRVLEEKNFASHKAYGNTYQYFP”, the “soluble fraction (log2)” value was -0.0146. For “HMLSSNEIKEIFALFDKSNRGQVATSELGTLVRALNLNPTETEITDMQSKVDPKGQGSFTLDVLEKVVQD”, the “soluble fraction (log2)” value stood at 0.206.

For the sequence “HMTSGTLTLTQDTPVYTEPNKDGGVAYVQPQGDIQWDKYIFANGDNWYSFVQKNRDQEVRFYIAYSDVG”, the “soluble fraction (log2)” value was -0.0923. Regarding “HMAVVIPDVKGMTIEEAAPFLAEKGIRYNIIDSVFSKDVDPGAIVEIVPTPGSKVKEGRIVFVTINAK”, the “soluble fraction (log2)” value was -0.538. “HMNKVQTFIIEKHIKEVFEHTNRTYYRSGQYYFQTRDEFSMALKRFLKDREPNKKNWIDSIINRA”: the “soluble fraction (log2)” value was -0.298. As for “HMQQPIPGEAYLTRRPGSDHFQIAFTIDGHRVRESSGTSDKVAAAALAQKRYEEVWREIKLGEK”, the “soluble fraction (log2)” value turned out to be 0.2. Consider “HMDRMIPPYGLEVTYDKTTHIIFPSAVRYVDLGSPNLIAGKADGSENVIRVKATRKNFREETNMSVITE”, for which the “soluble fraction (log2)” value is -0.043. “HMDLIISDIRMPEMRGDDFLEWIKANELFKHIPVIMLSSEDSTTERIRLLEIGAEDYIVKPFNPMELKIR”: the “soluble fraction (log2)” value is -0.505.

As for “HMHDWDITTAAKPEKIFELFSDIPVLETGLKHGTVTLLIDHEPYEVTTFRVDGNYTDGRHPDSVAFT”, the “soluble fraction (log2)” value was -0.0484. For “HMSVPVNAPMPGTILDIKVKAGAAVKAGDVVMILEAMKMENEISAPQDGTIASIDVRKGDTVNSGDVLYTM” the value was 0.0456. Take “HMEFQISLAAARVNANMTQEDTARAMKVSKTTIVNWEKGKVIPGIPEVEMMSRLYGIPQDYIFLP”: the “soluble fraction (log2)” value was -3.2.

Consider “HMKSDELTKRRRLQIIEAAERSFRKRGFHATTLREIAAEFGMSVGHIYNYFSGKDAILEALIHQKIDD”, for which the “soluble fraction (log2)” value was -0.82. Consider “HMLTLTNREKQVLVYIAKGHQVAQIAYELKLSGHTINGYIKTIYQKLHISSRAEAALLAQQYGL”, for which the “soluble fraction (log2)” value was -3.56. With “HMSEISAEAGKRIRYFRKSRSMTLEELAAVIHKSKATLSKYETGEISIDLDTLYDLAVALQVRAEQLLPAS”, the “soluble fraction (log2)” value is -2.29. Turning to “HMQISDTASIQEIAKEIIKSNPKAVEDYKKGKENALQFLVGQLMTKTKGTVHPGAARTILGDILK”, the “soluble fraction (log2)” value came to 0.0851.

As for “HMVNHVGITVSNLERSIQFYEALTGKKIANQDTIGGKRMAQTQGLADTLIKYANLHLDNLNIDLLEYVE”, the “soluble fraction (log2)” value was -0.386. Consider “HMKDSIQIPNVVGMTIKDAQSQYGKSFSIIEQNRTESTKPAGTILEQTPAGGDTVSKRDNIIIRVVVSLG”, for which the “soluble fraction (log2)” value turned out to be 0.132. Regarding “HMAPREELIAIHEALDKLEREDPQVSQLVKLRYFVGMTMAEAADAMDLKKRAAEALWTYGKAWLHREIKKN”, the “soluble fraction (log2)” value is -2.85. As to “HMDNMFVEERQALIYEELQSNGRVRVKDLSKKFNVSEDLIRKDLNVLEKEGKLRKIYGGAVLAK”, the “soluble fraction (log2)” value was found to be 0.568.

On to “HMDFYIVLGVDRAASVSDVKRAYRRLARKYHPDINPGDREAEAFFLRVTEAYETLIDPDRRQDYDVNG”, for which the “soluble fraction (log2)” value is -0.94. As for “HMAIDVQELARTRLRSLRTTLGYSLDELAARTHLSPSTISRLETGKRSLSLDVVVPLAQALHVSLDVLFEA”, the “soluble fraction (log2)” value is -2.68.

Turning to “HMSINTLEVHSLKALENLAESPLLISFSYENEEYNYRLASSDVSLLKKISSNYSDDSDIKGLRFIS”, the “soluble fraction (log2)” value was -0.992. For “HMEDYTPLQELGLKARYIELLEKGGIFSVEDLVQKSVDDLKDIDGIGEKTAKEIWEIVDSMVDF”, the “soluble fraction (log2)” value is -0.137.

Take “HMNEIESFSNTKNPFSLTFKTSKDSSYKVEASSNLKKWTTLSQIKGTGNPITFTESRRILFRKQYYRVTLS”: the “soluble fraction (log2)” value was -0.197. As to “HMQDVKRYLVNSNQLNVRTGPGKEFEISESLNKGDAVTLLHKESNGWWEVITSTGQGYVYSSMLTKDPW”, the “soluble fraction (log2)” value was -0.525. In the case of “HMVEGVSLVEIYVDENSKYNGKLLSEIPKKENTLVIMIQRGEQVIIPHGNIRLESGDMLVVSKTEI”, the “soluble fraction (log2)” value was -0.649. As to “HMFDDEELDRFAGVPADAYLPADEDEFREVFYTMRPGEVVEWVRSLELRHIEIPNGIKDEIFMMIR”, the “soluble fraction (log2)” value was -3.35.

For the sequence “HMHSESAAHQRTSVELFARIPETGNLQSAQRHFDVINQFGRFPHRNKILQRPSSEQEEAFLRQPGSG”, the “soluble fraction (log2)” value is 0.0792. Regarding “HMAVTKVKVITESSNLNIRKGPGTDQPIVGKAAHHEIITLVNKSNDQWWLVRTNDGEEGYSYSRYLEPVT”, the “soluble fraction (log2)” value is -0.39.

As to “HMQVSIGERVKLARMSAGLNQRQLGKEMGMSAMAISKYETGEVVPNSRVLIQLSQTLHVPLDFFFRS”, the “soluble fraction (log2)” value was -2.69. With “HMLEIGRYNTLTVLRKVDFGYYLDGLDYGDILMPAKYAATELEAGDEVDVFIYLDSSEKLIATTETPIAQ”, the “soluble fraction (log2)” value is -3.38.
